Measured values: PMC9271825
“And” between values parts separate entries of the source, which are not always exact repeats. Equal values may be shown once.

Molecular target: T1, Human Claudin-7 (Cldn7), wild type, His-tagged (human), O95471
T1 chain: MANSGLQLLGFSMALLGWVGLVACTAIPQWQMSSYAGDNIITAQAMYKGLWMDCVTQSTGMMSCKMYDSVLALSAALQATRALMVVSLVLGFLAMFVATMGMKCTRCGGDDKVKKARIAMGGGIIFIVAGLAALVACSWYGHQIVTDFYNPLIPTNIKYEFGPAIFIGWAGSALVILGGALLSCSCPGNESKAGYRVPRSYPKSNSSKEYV
Assay: SDS-PAGE and Western blot of SDS-stable oligomers; purified Cldn7 (IMAC eluate) on 10% SDS-PAGE, detected with an anti-His-tag antibody
Conditions: remark: other sources report otherwise

stoichiometry N: 2 and 3
B1: Human Claudin-7 (Cldn7), wild type, His-tagged, O95471 1-211 (natural protein)
chain: MANSGLQLLGFSMALLGWVGLVACTAIPQWQMSSYAGDNIITAQAMYKGLWMDCVTQSTGMMSCKMYDSVLALSAALQATRALMVVSLVLGFLAMFVATMGMKCTRCGGDDKVKKARIAMGGGIIFIVAGLAALVACSWYGHQIVTDFYNPLIPTNIKYEFGPAIFIGWAGSALVILGGALLSCSCPGNESKAGYRVPRSYPKSNSSKEYV
